Experimental data: patent US12404346B2, “Anti-naloxone and anti-naltrexone monoclonal antibodies and methods of production and use thereof” (Siemens Healthcare Diagnostics Inc., priority 2019, dated 2025)

Assays:
[1] = Randox naloxone assay, competitive chemiluminescent immunoassay; cited from earlier work
[2] = naloxone and naltrexone specific immunoassays (FIG. 9, FIG. 10); format: binding; conditions: FIG. 9 and FIG. 10
From the text: An EMIT® II (enzyme multiplied immunoassay, Siemens Healthineers, Newark, DE) Plus Naloxone and/or Naltrexone Assay is a homogeneous enzyme immunoassay technique used for the analysis of specific compounds in human urine. The assay is based on competition between drug in the specimen and drug labeled with glucose-6-phosphate dehydrogenase (rG6PDH) for antibody binding sites. Enzyme activity decreases upon binding to the antibody, so the drug concentration in the specimen can be measured in terms of enzyme activity. Active enzyme converts nicotinamide adenine dinucleotide (NAD) to NADH in the presence of glucose-6-phosphate (G6P), resulting in an absorbance change that is measured spectrophotometrically.
The EMIT® assay format comprises an antibody/substrate reagent, known as reagent 1. This reagent includes the antibody as well as buffers, preservatives, and stabilizers for the assay. The EMIT® assay format also comprises an enzyme reagent, known as reagent 2. This reagent includes the conjugate as well as buffers, preservatives, and stabilizers for the assay.

[3] = hydrocodone assay with antibody blocker (FIG. 13); conditions: cutoff 300 ng/ml
[4] = inhibition ELISA, anti-naltrexone monoclonal antibodies against key opioids (FIG. 8); format: binding; conditions: free drug 20 μg/mL, plates coated with ovalbumin conjugate
From the text: (§1) Mice with good anti-drug antibody titers and binding to free drug in the ELISA inhibition assays were selected to proceed with generation of monoclonal antibodies, in a similar manner to that described in U.S. Pat. No. 9,815,907 (issued to Sharma et al. on Nov. 14, 2017). In particular, mice with highest titers and best specificity were boosted three days prior to fusion. On the day of fusion, spleen cells were harvested from these mice and were fused with myeloma cell line P3X63Ag8.653 using PEG-assisted fusion protocols. After about ten days, hybridoma supernatants were screened for anti-naloxone and anti-naltrexone antibodies using a plate ELISA (direct binding and inhibition ELISA for specificity). Positive clones were further expanded and sub-cloned, and supernatants were purified using a Protein A SEPHAROSE® (GE Healthcare, Chicago, IL) column. Purified antibody samples were tested using ELISA for binding to the immunogen (i.e., a conjugate of drug-carrier protein) and to free opioids.
(§2) Antibody solution (Immune mouse bleeds or hybridoma clones supernatant or purified antibody) was screened using an inhibition ELISA procedure according to the following protocol. […] Plate coating was performed for 1 hour or more at room temperature or overnight at about 2° C. to 8° C. The plates were then flicked dry and blocked with 200 μL per well of blocking buffer solution (0.5% Casein solution in PBS containing 0.05% TWEEN® 20 surfactant (Croda International PLC, Snaith, United Kingdom). Plate blocking was performed by incubation for 30 minutes or more at room temperature with plate shaking. The plates were washed using a plate washer (BioTek®, Winooski, VT) with plate stacker with the washing buffer being MILLIQ® water (Millipore Corporation, Billerica, MA) containing 0.05% TWEEN® 20. The monoclonal antibody to be screened was then added to each well along with free drug as follows: 25 μL per well of appropriately diluted culture supernatant (or antibody solution) and added 25 μL of 20 μg/mL of free drug. Incubation was performed for about 1 hour at room temperature with plate shaking. The plate was washed. An enzyme conjugate (goat anti-mouse IgG coupled to HRP diluted in blocking buffer diluted to 1:3000) was added at 50 μL per well. Incubation was performed for about 1 hour at room temperature with shaking. The plate was then washed, and a chromogenic solution (TMB from Moss Substrates, Pasadena MD) was added at a volume of 100 μL per well. If a desired antibody was present in the hybridoma supernatant, then a decrease in optical density was observed compared to the well containing no free drug. The plates were read at 650 nm wavelength using an ELISA plate reader (Molecular Devices, San Jose, CA). Note: appropriate dilution of antibody solution was determined by performing a titration ELISA. The antibody dilution was chosen where around 1.0 optical density was observed.

[5] = inhibition ELISA, anti-naloxone monoclonal antibodies against key opioids (FIG. 7); format: binding; conditions: free drug 20 μg/mL, plates coated with ovalbumin conjugate
From the text: as §1, §2

[6] = opiate enzyme multiplied immunoassay with antibody blocker (FIG. 11, FIG. 12); conditions: cutoff 300 ng/mL; FIG. 11 and FIG. 12

C=CCN1CC[C@]23c4c5ccc(O[C@@H]6O[C@H](C(=O)O)[C@@H](O)[C@H](O)[C@H]6O)c4O[C@H]2C(=O)CC[C@@]3(O)[C@H]1C5 [naloxone 3-B-D glucuronide]
level of cross-reactivity [1]: 70.6%

B1: 180C 2A12: anti-naltrexone monoclonal antibody generated using naltrexone-3-Val-mcKLH; heavy chain SEQ ID NO:1, light chain SEQ ID NO:5 (antibody)
heavy: MGWSWIFLFLLSGTAGVHCQVQLQQSGPELVKPGGSVKLSCKASGYIFNDYTIHWMKQSPGQGLEWIGWMNRRSFNTMYNDKFKGKATMTVDKSSSTAYIQLSSLTSDDSAVYFCVRDVYDNLDYWGQGTSVTVSSAKTTPPSVYPLAPGSAAQTNSMVTLGCLVKGYFPEPVTVTWNSGSLSSGVHTFPAVLQSDLYTLSSSVTVPSSTWPSETVTCNVAHPASSTKVDKKIVPRDCGCKPCICTVPEVSSVFIFPPKPKDVLTITLTPKVTCVVVDISKDDPEVQFSWFVDDVEVHTAQTQPREEQFNSTFRSVSELPIMHQDWLNGKEFKCRVNSAAFPAPIEKTISKTKGRPKAPQVYTIPPPKEQMAKDKVSLTCMITDFFPEDITVEWQWNGQPAENYKNTQPIMDTDGSYFIYSKLNVQKSNWEAGNTFTCSVLHEGLHNHHTEKSLSHSPGK
light: MKLPVRLLVLMFWIPASSSDVLMTQTPLSLPVSLGDQASISCRSSQSIVHSNGNTYLEWYLQKPGQSPRLLIYKVSNRFSGVPDRFSGSGSGTDFTLRISRVEAEDLGLYYCFQGSHVPLTFGAGTKLELKRADAAPTVSIFPPSSEQLTSGGASVVCFLNNFYPRDINVKWKIDGSERQNGVLNSWTDQDSKDSTYSMSSTLTLTKDEYERHNSYTCEATHKTSTSPIVKSFNRNEC
modifications: Amino Acid sequence of heavy chain of monoclonal antibody SHC 004; Amino acid sequence of Light Chain of monoclonal antibody SHC 004
detection of naloxone and naltrexone in specific assays [2]: capable of detecting naloxone in addition to naltrexone, albeit at a lower specificity compared to naltrexone | effect of the antibody blocker on amount of naloxone and naltrexone giving a negative response [3]: increase the amount of naloxone and naltrexone that produces a negative response to the cutoff | specificity for naltrexone over the other key opioids tested in the inhibition ELISA assay [4]: good specificity for naltrexone

B2: 179A 6H6: anti-naloxone monoclonal antibody generated using naloxone-3-Val-mcKLH; heavy chain SEQ ID NO:221, light chain SEQ ID NO:225 (antibody, V domains shown)
VH: MYLGLNCVIIVFLLKGVQSEVKLEESGGGLVPPGGSMKLSCSVSGFTFSDAWIDWVRQSPEKGLEWIAESRNKANNYAIYYTESVKGRFTISRDDSKSRVYLQMNNLRVEDTGIYYCTGPDYDSYWGGTLVTVSA
VL: MEFQTQVFVFVLLWLSGVDGDVVMTQSQKIMSTSVGDRVSITCKASQNVRTAVTWYQLKPGQSPKALIYLASNRHTGVPDRFRGSGSGTDFTLTIINVQSEDLADYFCLQHWNYPLTFGAGTKLELK
modifications: Amino acid sequence of heavy chain of monoclonal antibody 179A 6H6; Amino acid sequence of light chain of monoclonal antibody 179A 6H6
detection of naloxone and naltrexone in specific assays [2]: detects both naloxone and naltrexone at substantially the same specificity | specificity for naloxone over the other key opioids tested in the inhibition ELISA assay [5]: good specificity for naloxone | change of naloxone/naltrexone cross reactivity response in the presence of the antibody blocker [6]: cross reactivity of naloxone changes from a positive to a negative response to the cutoff
